The supplement of paper PMC7877785
± gives the uncertainty stated by the source.

Experiment: self-splicing fitness, log relative to wild type (ln ratio); higher = more splicing; Tetrahymena group I intron in knt gene, E. coli kanamycin selection, DiMSum; sequences stand for … in CUCUCU…GGAGGGAAAAGUUAUCAGGCAUGCACCUGGUAGCUAGUCUUUAAACCAAUAGAUUGCAUCGGUUUAAAAGGCAAGACCGUCAAAUUGCGGGAAAGGGGUCAACAGCCGUUCAGUACCAAGUCUCAGGGGAAACUUUGAGAUGGCCUUGCAAAGGGUAUGGUAAUAAGCUGACGGACAUGGUCCUAACCACGCAGCCAAGUCCUAAGUCAACAGAUCUUCUGUUGAUAUGGAUGCAGUUCACAGACUAAAUGUCGGUCGGGGAAGAUGUAUUCUUCUCAUAAGAUAUAGUCGGACCUCUCCUUAAUGGGAGCUAGCGGAUGAAGUGAUGCAACACUGGAGCCGCUGGGAACUAAUUUGUAUGCGAAAGUAUAUUGAUUAGUUUUGGAGUACUCGUGGUCG
Method in brief: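 DiMSum derived fitness as the error-weighted combination of fold changes across replicates, kanamycin versus no kanamycin, normalised to wild type. E. coli BL21(DE3) held the library, which randomised all eight P1ex-region intron nucleotides within the knt kanamycin-resistance gene on pET-22b(+). Six replicate transformations grew overnight at 37°C or 30°C on LB agar with or without 25 μg/mL kanamycin, also containing 100 μg/mL carbenicillin, 50 μM IPTG and 0.2% rhamnose, and pooled colonies were amplicon-sequenced on an Illumina HiSeq 2500.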

| Sequence | self-splicing fitness (ln) (37 °C) | self-splicing fitness (ln) (30 °C) |
| --- | --- | --- |
| CCGGAGCAAUAUUACGAUAU | -2.37 ± 0.42 | – |
| CCGGAGCAAUAUUACGAUCA | -2.63 ± 0.44 | -3.1 ± 0.42 |
| CCGGAGCAAUAUUACGCAGG | -2.67 ± 0.23 | -3.9 ± 0.27 |
| CCGGAGCAAUAUUACGCAUG | 0.0371 ± 0.22 | -1.66 ± 0.14 |
| CCGGAGCAAUAUUACGGAGU | -3.41 ± 0.24 | -3.65 ± 0.2 |
| CCGGAGCAAUAUUACGGAUA | -1.18 ± 0.23 | -2.42 ± 0.2 |
| CCGGAGCAAUAUUACGGCAC | -0.904 ± 0.44 | – |
| CCGGAGCAAUAUUACGGCAG | -3.16 ± 0.33 | -3.21 ± 0.24 |
| CCGGAGCAAUAUUACGGCAU | -1.55 ± 0.19 | -2.81 ± 0.22 |
| CCGGAGCAAUAUUACGGCUG | -0.43 ± 0.18 | -1.14 ± 0.15 |
| CCGGAGCAAUAUUACGGUAC | -2.25 ± 0.4 | -2.73 ± 0.22 |
| CCGGAGCAAUAUUACGGUCU | -2.54 ± 0.38 | -2.42 ± 0.22 |
| CCGGAGCAAUAUUACGGUGG | -2.61 ± 0.36 | -3.8 ± 0.37 |
| CCGGAGCAAUAUUACGUGAG | -0.689 ± 0.1 | -1.33 ± 0.12 |
| CCGGAGCAAUAUUACGUGGA | -2.16 ± 0.25 | -3.59 ± 0.47 |
| CCGUAGCAAUAUUACGAAGA | -2.08 ± 0.24 | -3.8 ± 0.35 |
| CCGUAGCAAUAUUACGACAC | – | -1.82 ± 0.22 |
| CCGUAGCAAUAUUACGACAG | -0.234 ± 0.13 | -0.678 ± 0.11 |
| CCGUAGCAAUAUUACGACCU | – | -0.833 ± 0.34 |
| CCGUAGCAAUAUUACGACGG | -0.894 ± 0.28 | – |
| CCGUAGCAAUAUUACGAGCG | -0.719 ± 0.15 | -0.86 ± 0.12 |
| CCGUAGCAAUAUUACGAGGA | -1.24 ± 0.18 | -2.96 ± 0.24 |
| CCGUAGCAAUAUUACGAUGG | -3.38 ± 0.26 | -3.58 ± 0.2 |
| CCGUAGCAAUAUUACGAUUA | -1.86 ± 0.26 | -2.57 ± 0.2 |
| CCGUAGCAAUAUUACGAUUU | -2.08 ± 0.17 | -3.55 ± 0.17 |

| Sequence | self-splicing fitness (ln) (37 °C) | self-splicing fitness (ln) (30 °C) |
| --- | --- | --- |
| CCGUAGCAAUAUUACGCAAC | -2.13 ± 0.21 | -4.04 ± 0.26 |
| CCGUAGCAAUAUUACGCACA | -1.44 ± 0.36 | -3.79 ± 0.31 |
| CCGUAGCAAUAUUACGCGCU | -1.57 ± 0.3 | -3.4 ± 0.4 |
| CCGUAGCAAUAUUACGCUGA | -2.06 ± 0.28 | -2.87 ± 0.31 |
| CCGUAGCAAUAUUACGCUUA | -1.7 ± 0.35 | -3.52 ± 0.45 |
| CCGUAGCAAUAUUACGGAGU | -2.33 ± 0.22 | -2.68 ± 0.16 |
| CCGUAGCAAUAUUACGGAUG | -2.11 ± 0.23 | -3.56 ± 0.3 |
| CCGUAGCAAUAUUACGGCUU | -3.06 ± 0.43 | -3.06 ± 0.35 |
| CCGUAGCAAUAUUACGGUAU | -2.85 ± 0.2 | -4.05 ± 0.21 |
| CCGUAGCAAUAUUACGGUGU | -1.85 ± 0.11 | -3.66 ± 0.17 |
| CCGUAGCAAUAUUACGUAGA | -1.41 ± 0.13 | -3.28 ± 0.22 |
| CCGUAGCAAUAUUACGUCCG | 0.319 ± 0.11 | 0.211 ± 0.094 |
| CCGUAGCAAUAUUACGUCGG | -3.02 ± 0.23 | -3.57 ± 0.17 |
| CCGUAGCAAUAUUACGUGCU | -1.98 ± 0.19 | – |
| CCGUAGCAAUAUUACGUGGA | -2.84 ± 0.21 | -3.1 ± 0.32 |
| CCGUAGCAAUAUUACGUGUA | -3.25 ± 0.29 | -3.5 ± 0.2 |
| CCUAAGCAAUAUUACGACAU | -2.82 ± 0.038 | -3.909 ± 0.025 |
| CCUAAGCAAUAUUACGAGGU | -3.38 ± 0.18 | -4.68 ± 0.25 |
| CCUAAGCAAUAUUACGAUCA | -3 ± 0.25 | -3.57 ± 0.28 |
| CCUAAGCAAUAUUACGAUCU | -3.07 ± 0.28 | -3.39 ± 0.35 |
| CCUAAGCAAUAUUACGCAAA | -1.76 ± 0.3 | -3.38 ± 0.36 |
| CCUAAGCAAUAUUACGCAGC | -2.46 ± 0.24 | -3.07 ± 0.29 |
| CCUAAGCAAUAUUACGCAGU | -1.76 ± 0.19 | -3.23 ± 0.19 |
| CCUAAGCAAUAUUACGCUCC | -2.97 ± 0.29 | -4.01 ± 0.46 |
| CCUAAGCAAUAUUACGGACA | -2.24 ± 0.31 | -1.7 ± 0.31 |

| Sequence | self-splicing fitness (ln) (37 °C) | self-splicing fitness (ln) (30 °C) |
| --- | --- | --- |
| CCUAAGCAAUAUUACGGCAU | -1.98 ± 0.19 | -3.48 ± 0.22 |
| CCUAAGCAAUAUUACGGCGC | -3.22 ± 0.33 | -3.12 ± 0.29 |
| CCUAAGCAAUAUUACGGGCA | -2.85 ± 0.24 | -3.62 ± 0.25 |
| CCUAAGCAAUAUUACGUAAG | -0.35 ± 0.087 | -0.318 ± 0.064 |
| CCUAAGCAAUAUUACGUGCU | -2.55 ± 0.36 | -3 ± 0.24 |
| CCUAAGCAAUAUUACGUUCG | -2.02 ± 0.11 | -2.38 ± 0.091 |
| CCUCAGCAAUAUUACGAAUA | -2.78 ± 0.4 | -1.54 ± 0.2 |
| CCUCAGCAAUAUUACGACAG | -0.262 ± 0.079 | -1.06 ± 0.066 |
| CCUCAGCAAUAUUACGACGG | -1.64 ± 0.27 | -2.74 ± 0.18 |
| CCUCAGCAAUAUUACGACUG | -2.76 ± 0.21 | -3.09 ± 0.23 |
| CCUCAGCAAUAUUACGAGAU | -3.16 ± 0.24 | -3.32 ± 0.18 |
| CCUCAGCAAUAUUACGAGUC | -2.27 ± 0.26 | -3.88 ± 0.34 |
| CCUCAGCAAUAUUACGAUAG | -1.24 ± 0.1 | -0.572 ± 0.067 |
| CCUCAGCAAUAUUACGCAUA | -2.19 ± 0.17 | -2.47 ± 0.17 |
| CCUCAGCAAUAUUACGCCAC | -2.12 ± 0.41 | -3.18 ± 0.36 |
| CCUCAGCAAUAUUACGCCUG | -1.72 ± 0.11 | -2.38 ± 0.081 |
| CCUCAGCAAUAUUACGCGCG | -1.45 ± 0.13 | -2.78 ± 0.13 |
| CCUCAGCAAUAUUACGCUGG | -2.41 ± 0.17 | -2.55 ± 0.12 |
| CCUCAGCAAUAUUACGGAGA | -1.4 ± 0.15 | -2.8 ± 0.18 |
| CCUCAGCAAUAUUACGGAUC | -1.41 ± 0.22 | – |
| CCUCAGCAAUAUUACGGGGC | -2.98 ± 0.19 | -3.68 ± 0.14 |
| CCUCAGCAAUAUUACGGGGU | -3.49 ± 0.2 | -3.88 ± 0.15 |
| CCUCAGCAAUAUUACGGUAG | -0.195 ± 0.067 | -0.514 ± 0.05 |
| CCUCAGCAAUAUUACGGUGC | -2.77 ± 0.48 | -2.28 ± 0.15 |
| CCUCAGCAAUAUUACGGUGG | -2.41 ± 0.16 | -4.11 ± 0.16 |

| Sequence | self-splicing fitness (ln) (37 °C) | self-splicing fitness (ln) (30 °C) |
| --- | --- | --- |
| CCUCAGCAAUAUUACGGUUA | -3.26 ± 0.19 | -3.34 ± 0.21 |
| CCUCAGCAAUAUUACGGUUG | -0.828 ± 0.094 | -2.28 ± 0.085 |
| CCUCAGCAAUAUUACGUAGA | -2.8 ± 0.3 | -3.97 ± 0.28 |
| CCUCAGCAAUAUUACGUAUG | -0.495 ± 0.079 | -1.75 ± 0.075 |
| CCUCAGCAAUAUUACGUCCU | -2.68 ± 0.3 | -4.39 ± 0.31 |
| CCUCAGCAAUAUUACGUGUG | -0.812 ± 0.062 | -1.4 ± 0.061 |
| CCUCAGCAAUAUUACGUUGU | -2.52 ± 0.13 | -4.98 ± 0.23 |
| CCUCAGCAAUAUUACGUUUU | -3.03 ± 0.17 | -4.52 ± 0.27 |
| CCUGAGCAAUAUUACGAAAA | -2.52 ± 0.37 | -3.64 ± 0.35 |
| CCUGAGCAAUAUUACGAACC | – | -3.35 ± 0.3 |
| CCUGAGCAAUAUUACGACUG | -1.25 ± 0.19 | -1.38 ± 0.16 |
| CCUGAGCAAUAUUACGAGCG | -0.727 ± 0.14 | -2.57 ± 0.14 |
| CCUGAGCAAUAUUACGAGGG | -2.22 ± 0.23 | -3.48 ± 0.19 |
| CCUGAGCAAUAUUACGAGUA | -3.03 ± 0.43 | -2.98 ± 0.21 |
| CCUGAGCAAUAUUACGAUCU | – | -4.01 ± 0.39 |
| CCUGAGCAAUAUUACGAUUG | -2.83 ± 0.27 | -2.48 ± 0.17 |
| CCUGAGCAAUAUUACGCAAA | -2.42 ± 0.28 | -2.19 ± 0.26 |
| CCUGAGCAAUAUUACGCAGG | -3.36 ± 0.42 | -2.64 ± 0.27 |
| CCUGAGCAAUAUUACGCAUA | -2.83 ± 0.47 | -3.03 ± 0.32 |
| CCUGAGCAAUAUUACGCCGA | -3.2 ± 0.4 | -3.1 ± 0.39 |
| CCUGAGCAAUAUUACGCGCU | -2.1 ± 0.24 | -4.19 ± 0.39 |
| CCUGAGCAAUAUUACGCGUG | -2.82 ± 0.22 | -3.05 ± 0.19 |
| CCUGAGCAAUAUUACGCUUU | -3.14 ± 0.28 | -1.94 ± 0.17 |
